Assay results as given in patent publication US20050064518A1 (PURDUE PHARMA L P, published 2005).

B1: monoclonal antibody 368.1 (antibody, V domains shown)
VH: EVQLQQSGPELVRTGASVKISCKASGYSFTGFYMHWVKQSLGKSLEWIGYVSCYTGATTYTQKFKGKATFTVDTSSSTAYMQLNSLTSEDSAVYYCAREGDYYSMDFWGQGTSVTVSS
VL: DVVMTQTPLSLPVSLGDQASISCRSSQSLERTNGNTYLHWYLQKPGQSPKLLIYKVSSRFSGVPDRFSGSGSGTDFTLKISRVEAEDLGIYFCSQTTHGPPTCGGGTKLEIK
notes: Murine hybridoma antibody
B2: monoclonal antibody 501.1 (antibody, V domains shown)
VH: QIQLVQSGPELKKPGETVQISCKASGYIFTDYGMNWVKQAPGKGLKWMGCINTYTGETIYSDDFRGRFAISLETSASTAFIQINNLKNEDAATYFCARGNYRDAIDYWGQGTSVTVSS
VL: DIKMTQSPSSIYASLGERVTITCKASQDIKSYLSWYQQKPWKSPKTLIYYATTLADGVPSRFSGSGSGQDYSLIINSLESDDIATYFCLHHDESPFTFGSGTKLEI
notes: Murine hybridoma antibody
B3: monoclonal antibody 117.1 (antibody, V domains shown)
VH: QVTLKESGPGILQPSQTLSLTCSFSGFSLSTPGMGVGWIRQPSGKGLEWLAHIWWDDFKRDNPALKSRLTISKDTSSSQVFLKIASVDTADTATYYCVRVDGNFLSWYFDVWGAGTTVTVSS
VL: DAVMTQTPLSLPVSLGDQASISCRSSQSLVHSNGNTYLHWYLQKPGQSPKLLIYKVSNRFSGVPDRFSGSGSGTDFTLRISRVEAEDLGVYFCSQSRYVPWTFGGGTKLEIK
notes: Murine hybridoma antibody

Target: T1, O772P 3-repeat recombinant protein (human)
T1 construct: Repeats are residues 14-452 of the entry
T1 chain: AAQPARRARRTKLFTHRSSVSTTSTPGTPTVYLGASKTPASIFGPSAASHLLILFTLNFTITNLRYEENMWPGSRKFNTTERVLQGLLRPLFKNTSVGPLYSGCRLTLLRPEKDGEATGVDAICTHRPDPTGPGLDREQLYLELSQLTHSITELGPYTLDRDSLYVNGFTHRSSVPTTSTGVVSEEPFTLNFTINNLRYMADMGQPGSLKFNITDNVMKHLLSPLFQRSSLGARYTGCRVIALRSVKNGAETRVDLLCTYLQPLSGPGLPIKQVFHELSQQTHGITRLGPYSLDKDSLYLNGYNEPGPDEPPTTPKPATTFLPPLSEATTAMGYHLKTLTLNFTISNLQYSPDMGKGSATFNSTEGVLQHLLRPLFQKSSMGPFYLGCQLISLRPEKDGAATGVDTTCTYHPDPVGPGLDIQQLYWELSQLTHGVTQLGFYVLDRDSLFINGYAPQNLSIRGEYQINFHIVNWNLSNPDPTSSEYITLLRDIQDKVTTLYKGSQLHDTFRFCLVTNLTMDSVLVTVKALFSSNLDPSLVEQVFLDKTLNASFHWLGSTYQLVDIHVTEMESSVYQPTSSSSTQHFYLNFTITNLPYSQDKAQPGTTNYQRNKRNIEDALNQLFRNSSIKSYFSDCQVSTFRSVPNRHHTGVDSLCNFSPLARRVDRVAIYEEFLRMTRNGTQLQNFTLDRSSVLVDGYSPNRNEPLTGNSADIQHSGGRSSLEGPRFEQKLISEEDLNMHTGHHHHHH
Experiment: BIAcore SPR, O772P 3-repeat immobilized, mAb injected
Description: A […] BIAcore biosensor chip was docked into the BIAcore X instrument and activated with 55 μl of 1:1 NHS/EDC at room temperature. O772P 3-repeat region protein and BSA at 10 μg/ml in 0.05 M acetate buffer, pH 4.5, were immobilized onto the flow cell (FC) 1 and FC2 of the activated chip, respectively, at a flow rate of 5 μl/min to achieve a resonance response of 1000-2000 RU. The chip was then blocked by injection of 55 μl of ethanolamine-HCl, pH 8.5, and followed with washing 5 times with 50 mM NaOH-1 M NaCl. To measure the binding of anti-0722P mAbs to the O772P 3-repeat region immobilized to the chip, 30 μl of anti-0722P mAbs at varying concentrations in BIAcore running buffer (HBS-EP, Cat. #1001-080, BIAcore, Piscataway, N.J.) were injected over the sensor surface at a flow rate of 5 μl/min. Following completion of the injection phase, dissociation was monitored in BIAcore running buffer at the same flow rate for 360 seconds. The surface was regenerated between injections using 30 μl of 50 mM NaOH-1 M NaCl. Individual sensorgrams were analyzed using BIAevaluation.

Binder | Kd
B1 | 0.0007 µM
B2 | 0.07 µM
B3 | 0.012 µM

Target: T1, O772P 3-repeat recombinant protein
Experiment: ELISA, plate-bound O772P 3-repeat
Description: On the next day, the plates were washed with 200 μl 1×PBST (1× phosphate-buffered saline (PBS), 0.05% Tween 20) three times and blocked with 100 μl of 1×PBST containing 1% bovine serum albumin (BSA) for 2 hours at 37° C. […] After 1 hour incubation at 37° C., the plates were then washed with 1×PBST three times. For signal detection, 100 μl of HRP (horseradish peroxidase)-conjugated sheep anti-mouse IgG (1:2000 dilution into 1×PBST+1% BSA; Amersham Biosciences) was added to each well and incubated for 1 hour at 37° C. The plates were again washed three times with 1×PBST. Finally, 100 μl¹ of a mixture of TMB (3,3′, 5,5′-tetramethylbenzidine) substrate and H₂O₂ (1:1 ratio, KPL Kirkguard Perry Laboratories) was added into each well and after a 5 minute incubation, the absorbance was measured at 405 nm with a plate reader (Molecular Devices Corp., Sunnyvale, Calif.). The assay was done in triplicate for each selected O772P hybridoma-produced antibody and data was collected and analyzed as a kinetic assay, measured over a 5 minute time period. Average values were calculated and presented. Controls for blank and individual reagents were also included in each experiment.

Binder | absorbance (OD) | absorbance (OD)/µg Ab
B1 | 1.29 OD | 32 OD/µg Ab
B2 | 0.856 OD | 21 OD/µg Ab
B3 | 0.619 OD | 15 OD/µg Ab

Target: T2, O772P 3-repeat TM on transfected NIH/3T3 cells (human)
T2 construct: also called NIH/3T3 O772P 3-repeat
T2 chain: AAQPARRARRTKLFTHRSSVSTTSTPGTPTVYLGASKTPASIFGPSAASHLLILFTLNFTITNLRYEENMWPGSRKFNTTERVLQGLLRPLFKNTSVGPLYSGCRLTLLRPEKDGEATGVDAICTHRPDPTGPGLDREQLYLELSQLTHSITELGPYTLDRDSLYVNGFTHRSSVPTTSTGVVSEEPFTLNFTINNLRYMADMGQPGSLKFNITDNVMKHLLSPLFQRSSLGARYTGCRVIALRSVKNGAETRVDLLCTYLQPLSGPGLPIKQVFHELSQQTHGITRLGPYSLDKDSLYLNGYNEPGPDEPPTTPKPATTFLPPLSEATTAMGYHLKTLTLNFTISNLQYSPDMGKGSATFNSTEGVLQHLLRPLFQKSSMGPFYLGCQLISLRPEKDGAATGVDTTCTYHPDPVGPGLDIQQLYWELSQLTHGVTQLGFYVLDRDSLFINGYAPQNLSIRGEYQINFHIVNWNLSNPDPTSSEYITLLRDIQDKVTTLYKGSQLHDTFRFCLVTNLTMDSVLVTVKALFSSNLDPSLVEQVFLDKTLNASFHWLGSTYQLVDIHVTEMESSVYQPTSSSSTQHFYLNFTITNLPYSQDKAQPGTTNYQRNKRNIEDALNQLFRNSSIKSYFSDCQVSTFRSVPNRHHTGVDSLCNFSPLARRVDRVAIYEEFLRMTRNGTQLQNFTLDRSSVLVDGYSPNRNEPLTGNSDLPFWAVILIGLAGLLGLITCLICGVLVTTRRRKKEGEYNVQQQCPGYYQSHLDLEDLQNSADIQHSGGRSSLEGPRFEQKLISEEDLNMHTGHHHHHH
Experiment: flow cytometry, NIH/3T3 cells expressing O772P 3-repeat TM; Ab 2 µg/ml

Binder | % positive cells
B1 | 86%
B2 | 89%
B3 | 83%
